Experimental data taken from PMC5746249.

How the values were obtained:
[1] = molecular target: LC8 dynein light chain (DYNLL2), full-length, His6-tagged (UniProt Q96FJ2); experiment: SPR; ProteOn XPR36, HTG chip; His6-LC8 immobilised on Ni2+-NTA surface at three densities (1200, 900, 600 RU); peptides injected at five concentrations, 60 ul/min; 20 mM Hepes, 150 mM NaCl, 0.05% Tween-20, 0.1 mM TCEP, 50 uM EDTA, pH 7.5; 1:1 Langmuir model; Kd is the mean of the kinetic and the equilibrium analysis; apparent
[2] = molecular target: LC8 dynein light chain (DYNLL2), full-length, His6-tagged (UniProt Q96FJ2); experiment: SPR; ProteOn XPR36, HTG chip; His6-LC8 immobilised on Ni2+-NTA at three densities (1200, 900, 600 RU); peptides injected at five concentrations, 60 ul/min, 400 s, dissociation 600 s; 20 mM Hepes, 150 mM NaCl, 0.05% Tween-20, 0.1 mM TCEP, 50 uM EDTA, pH 7.5; 1:1 Langmuir global fit; Kd is the mean of the kinetic and the equilibrium analysis, SD from three individual Kd values

LC8 dynein light chain (DYNLL2), full-length, His6-tagged, sequence (Q96FJ2 whole entry): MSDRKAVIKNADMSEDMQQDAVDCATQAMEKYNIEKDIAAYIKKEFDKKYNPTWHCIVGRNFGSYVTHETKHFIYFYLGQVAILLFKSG

Substance: MPHOSPH9 LC8 binding motif peptide (motif start 909)
- Kd [1]: 1.2 µM

Substance: MPHOSPH9 LC8 binding motif peptide (start 909)
- Kd [2]: 1.2 µM
